# Reference: patent US20250277196A1, “EPSPS MUTANTS AND METHOD OF ITS USES” (CROPEDIT BIOTECHNOLOGY INC., priority 2021, published 2025)
# Numbering of substitutions follows the chain as printed. Names may count otherwise.
# B1: OsTIPS: mutated rice EPSPS with mutation T173I and P177S (SEQ ID NO:35); same mutation type as glyphosate-resistant corn GA21 (protein)
# chain: MAAKAEEIVLQPIREISGAVQLPGSKSLSNRILLLSALSEGTTVVDNLLNSEDVHYMLEALKALGLSVEADKVAKRAVVVGCGGKFPVEKDAKEEVQLFLGNAGIAMRSLTAAVTAAGGNATYVLDGVPRMRERPIGDLVVGLKQLGADVDCFLGTECPPVRVKGIGGLPGGKVKLSGSISSQYLSALLMAAPLALGDVEIEIIDKLISIPYVEMTLRLMERFGVKAEHSDSWDRFYIKGGQKYKSPGNAYVEGDASSASYFLAGAAITGGTVTVQGCGTTSLQGDVKFAEVLEMMGAKVTWTDTSVTVTGPPREPYGKKHLKAVDVNMNKMPDVAMTLAVVALFADGPTAIRDVASWRVKETERMVAIRTELTKLGASVEEGPDYCIITPPEKLNITAIDTYDDHRMAMAFSLAACADVPVTIRDPGCTRKTFPNYFDVLSTFVRN
# modifications: This sequence is synthesized in lab.
# notes: same mutation type as glyphosate-resistant corn GA21
# B2: 3-36: rice EPSPS with V113M, G172A, P177S and V403A mutations (protein)
# chain: B1 chain with V45M, G104A, I105T, V335A
# modifications: This sequence is synthesized in lab.
# notes: rice EPSPS with V113M, G172A, P177S and V403A mutations
# B3: 1-386: rice EPSPS with G172A, P177S, V403A and F502V mutations (protein)
# chain: B1 chain with G104A, I105T, V335A, F434V
# modifications: This sequence is synthesized in lab.
# notes: rice EPSPS with G172A, P177S, V403A and F502V mutations
# B4: 1-411: rice EPSPS with G172A, P177S, Y252F and V403A mutations (protein)
# chain: B1 chain with G104A, I105T, Y184F, V335A
# modifications: This sequence is synthesized in lab.
# notes: rice EPSPS with G172A, P177S, Y252F and V403A mutations
# B5: 1-547: rice EPSPS with E137D, G172A, P177S, L253M and V403A mutations (protein)
# chain: B1 chain with E69D, G104A, I105T, L185M, V335A
# modifications: This sequence is synthesized in lab.
# notes: rice EPSPS with E137D, G172A, P177S, L253M and V403A mutations
# B6: 1-246: rice EPSPS with A145G, G172A, P177S, V403A, T442S and D472E mutations (protein)
# chain: B1 chain with A77G, G104A, I105T, V335A, T374S, D404E
# modifications: This sequence is synthesized in lab.
# notes: rice EPSPS with A145G, G172A, P177S, V403A, T442S and D472E mutations
# B7: 1-68: rice EPSPS with A70V, G172A, P177S, V403A and R514S mutations (protein)
# chain: B1 chain with A2V, G104A, I105T, V335A, R446S
# modifications: This sequence is synthesized in lab.
# notes: rice EPSPS with A70V, G172A, P177S, V403A and R514S mutations
# B8: 1-98: rice EPSPS with A73T, G172A, P177S and V403A mutations (protein)
# chain: B1 chain with A5T, G104A, I105T, V335A
# modifications: This sequence is synthesized in lab.
# notes: rice EPSPS with A73T, G172A, P177S and V403A mutations
# B9: 1-139: rice EPSPS with A73T, E86G, G172A, P177S and V403A mutations (protein)
# chain: B1 chain with A5T, E89G, G104A, I105T, V335A
# modifications: This sequence is synthesized in lab.
# notes: rice EPSPS with A73T, E86G, G172A, P177S and V403A mutations
# Tested on: Escherichia coli DH5α with EPSPS gene knocked out
# Experiment: Resistance test of rice EPSPS mutants from error-prone PCR on OsGPV: colony growth on medium with 0, 100 mM and 125 mM glyphosate (FIG. 7)
# Type: cell-based
# Settings: 100 mM glyphosate
# Description: In order to further improve the glyphosate resistance and develop highly resistant rice EPSPS mutants that can meet commercial production requirements, we used OsGPV as a template to perform random mutations, with high-concentration glyphosate screening, and to identify EPSPS mutant that can improve the glyphosate resistance.
# We used OsGPV(SEQ ID NO:6) as a template to perform error-prone PCR. (With GeneMorph II Random Mutagenesis Kit, #200550, Agilent Technologies).
# a) The recovered product was digested with EcoRI and SbfI, and then ligated to the pKED2 vector after the same double digestion with T4 DNA ligase to obtain the ligation product to obtain the vector carrying the rice EPSPS gene mutant.
# b) Transformed the above vector into Escherichia coli DH5α with EPSPS gene knocked out. The transformation steps were as follows: add the above ligation product to 50 μl E. coli DH5α competent cells with EPSPS gene knocked out, mix well and incubate on ice for 30 min, then after a heat shock at 42° C. for 90 s, immediately place it in an ice bath on ice for 2 min after taking it out. After the ice bath, add 500 μl of LB liquid medium and resuscitate at 37° C. at 180 r/min for 45 min. The transformed Escherichia coli was a mutant library expressing rice EPSPS mutant genes obtained on the template basis of OsGPV.
# 5) Centrifuged the transformed product obtained above at 3000 rpm for 5 min, discarded the supernatant, then resuspended it in 1 ml M9 liquid medium, added 200 μl M9 liquid medium to resuspend and inoculated it on an M9 plate containing 75 mM glyphosate. Incubated at 37 degrees for 24 hours.
# Pick and saved the single colonies grown in the above screening plates, and conduct further resistance identification and sequencing
# ii. Resistance test of rice mutants. In this example, the wild-type rice EPSPS gene OsWT, the most widely used commercial glyphosate-resistant gene CP4EPSPS, the rice mutantOsTIPS, which had the same mutation type with commercial glyphosate-resistant corn GA21, and the rice mutant OsGPV with the highly glyphosate-resistant rice EPSPS mutant gene obtained in this study were transformed as control, and the newly obtained rice EPSPS mutants were transformed as the experimental group, and the glyphosate resistance among the control and the mutants were compared. The monoclonal bacteria of the control group and the experimental group were respectively inoculated into a medium containing 0, 100 mM and 125 mM glyphosate, and the growth of colonies in each group was observed.
row,Molecule,colony growth under 100 mM glyphosate
1,B1,did not grow

# Same assay, conditions: 125 mM glyphosate pressure, FIG. 7
row,Molecule,colony growth status compared with OsGPV
1,B2,significantly higher than OsGPV
2,B3,significantly higher than OsGPV
3,B4,significantly higher than OsGPV
4,B5,significantly higher than OsGPV
5,B6,significantly higher than OsGPV
6,B7,significantly higher than OsGPV
7,B8,significantly higher than OsGPV
8,B9,significantly higher than OsGPV
